Laboratory results as given in patent US20260132200A1.
Where two headings read alike, the source gives them in different places.

Assays:
[1] = target: human CD20 expressed on Raji cells (CD3-, CD20+ human B-cell line) (human) (UniProt P11836); assay: cell-based or functional assay
[2] = target: human CD3 expressed on cells (Jurkat, a CD3+ human T-cell line; human T cells) (human) (UniProt P07766); assay: cell-based or functional assay
[3] = target: human CD3 expressed on cells (Jurkat, a CD3+ human T-cell line; human T cells) (human) (UniProt P07766); assay: cell-based or functional assay; remark: listed apart in the source
[4] = target: cynomolgus monkey CD3 on monkey T cells (CD2+CD4+ cells of cynomolgus PBMCs) (cynomolgus monkey) (UniProt Q95LI5); assay: FACS on monkey PBMCs, CD2+CD4+ T cells
[5] = target: cynomolgus monkey CD3 on monkey T cells (CD2+CD4+ cells of cynomolgus PBMCs) (cynomolgus monkey) (UniProt Q95LI5); assay: FACS on cynomolgus PBMCs, CD2+CD4+ T cells

human CD20 expressed on Raji cells (CD3-, CD20+ human B-cell line) (human), sequence (P11836 whole entry): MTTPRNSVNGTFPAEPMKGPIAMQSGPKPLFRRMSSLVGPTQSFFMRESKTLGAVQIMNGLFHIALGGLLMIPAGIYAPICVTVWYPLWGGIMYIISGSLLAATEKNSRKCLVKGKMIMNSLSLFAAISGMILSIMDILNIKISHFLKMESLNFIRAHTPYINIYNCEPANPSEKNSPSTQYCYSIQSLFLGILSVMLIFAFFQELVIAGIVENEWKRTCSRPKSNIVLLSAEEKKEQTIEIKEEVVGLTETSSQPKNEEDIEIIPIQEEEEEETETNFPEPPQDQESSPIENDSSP
cynomolgus monkey CD3 on monkey T cells (CD2+CD4+ cells of cynomolgus PBMCs) (cynomolgus monkey), sequence (Q95LI5 22-198): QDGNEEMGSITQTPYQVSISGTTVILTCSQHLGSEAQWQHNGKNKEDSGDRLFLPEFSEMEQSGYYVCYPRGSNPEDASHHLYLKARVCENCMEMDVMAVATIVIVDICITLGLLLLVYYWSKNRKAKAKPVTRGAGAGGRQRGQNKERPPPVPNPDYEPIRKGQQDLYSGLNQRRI

Which CDC EC50, Raji [1] does the source give for “Control III: anti-CD20 therapeutic antibody with heavy and light chain sequences of Rituxan (Rituximab)” here?
Its CDC EC50, Raji is 96.6 pM.

What about the CDC EC50, Raji SCID1 [1] of the same substance?
Its CDC EC50, Raji SCID1 is 85.6 nM.

What about the CDC EC50, Raji SCID2 [1] of the same substance?
The CDC EC50, Raji SCID2 was 58.7 pM.

What about the CDC EC50, Raji SCID3 [1] of the same substance?
The CDC EC50, Raji SCID3 was 25.5 nM.

And the CDC EC50, Raji SCID4 [1]?
The CDC EC50, Raji SCID4 was 5.29 nM.

For “OKT-3, mouse monoclonal antibody against human T-cell surface antigens (ATCC CRL-8001)”, which U937 Cytotoxicity Human T-cells [M] (EC50) [2] is on record?
The U937 Cytotoxicity Human T-cells [M] (EC50) was 3.04e-12 M.

And the U937 Cytotoxicity Human T-cells [M] (EC50) [3]?
Its U937 Cytotoxicity Human T-cells [M] (EC50) is 2.35e-12 M.

Which EC50 [4] does the source give for “SP34, mouse monoclonal antibody reactive against the epsilon chain of the T3 complex on human T lymphocyte cells” here?
Its EC50 is 0.0703 nM.

And the EC50 [5]?
The EC50 was 0.0703 nM.
